Experimental data as given in patent publication US20130231286A1, “Use of Prolactin Receptor Antagonist and Chemotherapeutic Drug for Treating Ovarian Cancer” (ONCOLIX, INC., priority 2010, published 2013).

How the values were obtained:
[1] = tested on: human ovarian cancer cells SKOV3; assay: Human ovarian cancer cells SKOV3 injected intraperitoneally in SCID mice: tumors and secondary nodules; assay type: in vivo, mouse; conditions: 38 days, G129R 100 ug daily, DCT 25 ug weekly
Experimental: SCID mice (laboratory experimental animals that lack both T and B lymphocytes) were injected with one million human ovarian cancer cells SKOV3 intraperitoneally on day 1.
All mice were treated for 38 days and then sacrificed, and tumors from every experimental group were weighted.
The effect of G129R and the G129R+DCT combination on the ability of human ovarian cancer cells to metastasize was also studied.

[2] = tested on: mouse ovarian cancer cells ID8; assay: Mouse ovarian cancer cells ID8 injected intraperitoneally in SCID mice: tumors and secondary nodules; assay type: in vivo; conditions: 52 days, G129R 100 ug daily, DCT 25 ug weekly
Experimental: SCID mice were injected with one million mouse ovarian cancer cells ID8 intraperitoneally on day 1.
All mice were treated for 52 days and then sacrificed, and tumors from every experimental group were weighted.
The effect of G129R and the G129R+DCT combination on the ability of mouse ovarian cancer cells to metastasize was also studied.

[3] = tested on: Primary mammary tumor cells isolated from MMTV/neu transgenic mouse; assay: ALDH1 activity in cultured primary MMTV/neu mammary tumor cells, time course; assay type: cell-based; conditions: G129R 10 ug/ml
Experimental: Primary mammary tumor cells were isolated from MMTV/neu transgenic mouse and cultured in the presence of G129R (10 ug/ml) or PRL (100 ng/ml) for 24, 48, 72, or 96 hrs. Specifically, tumor removed from an MMTV-neu mouse was digested to a single cell suspension and plated in 12-well plates at 1×10^5 cells/ml. Cells were allowed to adhere for 24 hours in growth media followed by 2 hours of serum-free media depletion. The cells were then either treated without (control) or with prolactin (100 ng/ml) or G129R (10 ug/ml). Cells were collected following 24, 48, 72, or 96 hours of treatment and the ALDH-1 activity was measured.

[4] = tested on: Human triple-negative breast cancer cells MDA-MB-231; assay: ALDH1 activity (ALDEFLUOR fluorescent assay) in triple-negative breast cancer cells; assay type: cell-based; conditions: MDA-MB-231, G129R 10 ug/ml, three days, vs control
Experimental: Human triple-negative breast cancer cells MDA-MB-231 and control breast cancer cells T-47D were plated in 6 well plates at 1×10^5 cells/ml, and allowed to adhere for 24 hours in growth media followed by 2 hours of serum free media depletion. The cells were then cultured either without (control) or with prolactin (100 ng/ml) or G129R (10 ug/ml) for three days. The cells were then collected and the ALDH-1 activity (this enzyme is a marker for cancer stem cells. See Ginestier et al., Cell Stem Cell 2007 1(5): 555-567) was measured by ALDEFLUOR^R fluorescent assay (StemCell Technologies).

[5] = tested on: phosphorylated Neu protein; assay: Phosphorylation of Neu protein in primary and secondary tumors (western blotting); assay type: in vivo, mouse; conditions: 200 ug per day for 5 days, vs PBS
Experimental: MMTV/neu mice (bearing primary and secondary tumors) were treated either with PBS (control) or with 200 ug of G129R per day for 5 days. Primary and secondary tumors were removed 24 hours following the 5th treatment and processed for western blotting.

[6] = tested on: phosphorylated HER2/neu protein; assay: Dose-dependent response of phosphorylated HER2/neu in tumors in vivo (western blotting); design: species or system mouse; conditions: i.p. for ten days; 2.5, 5, 10, 20 mg/kg/day tested
Experimental: To determine a minimal dosage of G129R required for decreasing phosphorylation of HER^+/neu in vivo, a biopsy was removed from tumors of MMTV/neu transgenic mice and was used as a self-control baseline. The mice were then treated i.p. for ten days with either PBS or G129R at the following concentrations: 50, 100, 200 or 400 ug daily (2.5 mg/kg/day, 5 mg/kg/day; 10 mg/kg/day; or 20 mg/kg/day of G129R). The tumors were then harvested and processed for western blotting. The western blots were then probed with an antibody that detects phosphorylated HER2/neu protein and an antibody against beta-tubulin as a control for gel loading and western blotting transfer.

[7] = tested on: lung metastases of HER2+/neu breast tumors; assay: Lung metastases after removal of primary breast tumors in MMTV/neu mice; assay type: in vivo, mouse; conditions: 200 ug/day i.p. for more than 40 days, vs untreated control, P<0.05
Experimental: Primary breast tumors were removed from MMTV/neu transgenic mice. The mice were then treated either with PBS or G129R (200 ug/day, i.p.) for more than 40 days. When the secondary tumors (recurrence) grew to a certain size, the mice were sacrificed and the lungs were excised and fixed in Bouin's fixative to observe metastasis.

[8] = tested on: mammary HER2+ adenocarcinomas of MMTV/neu transgenic mice; assay: ALDH1 activity in tumor cells isolated from treated MMTV/neu transgenic mice; assay type: in vivo, mouse
Experimental: MMTV/neu transgenic mice carry an activated c-neu oncogene driven by a mouse mammary tumor virus (MMTV) promoter and develop mammary HER2^+ adenocarcinomas (Muller et al. 1988. Cell. 54(1):105-15). MMTV/neu transgenic mice bearing mammary tumors were treated with PBS (n=4) or G129R for 5 (n=2) or 10 (n=3) days (10 mg/kg, i.p.). The tumors were isolated at the end of treatment, digested to a single cell suspension, and ALDH1 activity levels were compared.

[9] = tested on: phosphorylated HER2/neu protein; assay: Time-dependent response of phosphorylated HER2/neu in tumors in vivo (western blot); design: species or system mouse; conditions: 10 mg/kg/day i.p.
Experimental: To determine an optimal length of treatment with G129R, MMTV tumor-bearing mice were treated with 200 ug G129R for either five or ten days. Tumors were removed 24 hours after the last treatment and processed for western blot analysis. […] As also can be seen in FIG. 8, of 10 mice receiving a 10 day treatment of G129R (10 mg/kg/day, i.p.), tumors from 3 mice were highly responsive and virtually no phosphorylated HER2/neu was detected in these tumors, 5 mice were moderately responsive and 2 mice were nonresponsive.

[10] = tested on: HER2+/neu tumors implanted into female transgenic mice; assay: Growth of implanted tumors in transgenic mice; assay type: in vivo, mouse; conditions: 10 mg/kg i.p. daily, 50 days; ±SEM
Experimental: In two separate experiments, tumors were isolated from female transgenic mice, sectioned into equivalent sized pieces and implanted into age-matched recipient female transgenic mice. Ten days after implantation, mice were randomized into either control (n=3-4) or G129R treated groups (n=4, 10 mg/kg, i.p. daily). The mice were then treated on a daily basis for 50 days and tumor volumes for the control and treated groups were monitored.

**Q.** What does the source list for `CC(=O)O[C@@]12CO[C@@H]1C[C@H](O)[C@@]1(C)C(=O)[C@H](O)C3=C(C)[C@@H](OC(=O)[C@H](O)[C@@H](NC(=O)OC(C)(C)C)c4ccccc4)C[C@@](O)([C@@H](OC(=O)c4ccccc4)[C@H]21)C3(C)C` [docetaxel, reference compound]?
**A.** number of secondary nodules (metastases) versus control [1]: suppressed the number of secondary nodules; size (weight) of tumors versus control [1]: suppressed the growth of tumors; number of secondary nodules (metastases) versus control [2]: suppressed the number of secondary nodules; size (weight) of tumors versus control [2]: suppressed the tumor growth

B1: G129R: prolactin receptor antagonist: human prolactin in which glycine at position 129 is substituted with arginine (protein)
chain: LPICPGGAARCQVTLRDLFDRAVVLSHYIHNLSSEMFSEFDKRYTHGRGFITKAINSCHTSSLATPEDKEQAQQMNQKDFLSLIVSILRSWNEPLYHLVTEVRGMQEAPEAILSKAVEIEEQTKRLLERMELIVSQVHPETKENEIYPVWSGLPSLQMADEESRLSAYYNLLHCLRRDSHKIDNYLKLLKCRIIHNNNC
**Q.** Which “number of secondary nodules (metastases) versus control” value [1] does the source give for B1 here?
**A.** decreased the number of secondary nodules

**Q.** And the “size (weight) of tumors versus control” value [1]?
**A.** decreased the size of tumors

**Q.** What about the “reduction of ALDH1 activity versus control” value ([3]; 96 hrs) of the same molecule?
**A.** 92.3%

**Q.** And the “ALDH1 activity over the time course” value ([3]; 24, 48, 72, 96 hrs)?
**A.** steady decrease

**Q.** And the “ALDH1 activity in triple-negative breast cancer cells” value [4]?
**A.** significantly reduced

**Q.** And the “phosphorylated Neu protein in primary tumors” value [5]?
**A.** significant decrease

**Q.** And the “phosphorylation of neu in secondary tumors” value ([5]; some phosphorylated neu still detected)?
**A.** decrease

**Q.** And the “lowest dosage with inhibitory effect on phosphorylation of HER+/neu” value [6]?
**A.** 5 mg/kg/day

**Q.** What about the “percentage of animals with lung metastases” value [7] of the same molecule?
**A.** significantly reduced

**Q.** And the “number of secondary nodules (metastases) versus control” value [2]?
**A.** decreased the number of secondary nodules

**Q.** And the “size (weight) of tumors versus control” value [2]?
**A.** decreased the size of tumors

**Q.** And the “ALDH1 activity in cancer cells isolated from treated animals” value ([8]; 10 mg/kg i.p. for 5 or 10 days, vs PBS)?
**A.** significantly reduced

**Q.** What about the “ALDH1 activity in cancer cells after ten days of treatment” value ([8]; 10 mg/kg i.p., ten days) of the same molecule?
**A.** Practically no ALDH1 activity was detected

**Q.** And the “mice highly responsive (virtually no phosphorylated HER2/neu detected)” value ([9]; of 10 mice, 10 day treatment)?
**A.** 3 mice

**Q.** What about the mice moderately responsive ([9]; of 10 mice, 10 day treatment) of the same molecule?
**A.** 5 mice

**Q.** What about the nonresponsive mice ([9]; of 10 mice, 10 day treatment) of the same molecule?
**A.** 2 mice

**Q.** What about the “mice moderately responsive (noticeable reduction in phosphorylated HER2/neu)” value ([9]; of 14 mice, 5 day treatment) of the same molecule?
**A.** 4 mice

**Q.** What about the “mice whose tumors showed drastic reduction in phosphorylated HER2/neu” value ([9]; of 14 mice, 5 day treatment) of the same molecule?
**A.** 5 mice

**Q.** And the nonresponsive mice ([9]; of 14 mice, 5 day treatment)?
**A.** 5 mice

**Q.** What about the “final tumor volume smaller than control (first value of two experiments)” value [10] of the same molecule?
**A.** 67.1%

**Q.** And the “final tumor volume smaller than control (second value of two experiments)” value [10]?
**A.** 71.5%

**Q.** And the “final tumor weight reduced versus control (first value of two experiments)” value [10]?
**A.** 61.3%

**Q.** What about the “final tumor weight reduced versus control (second value of two experiments)” value [10] of the same molecule?
**A.** 62.5%
